From the RNAGym collection of RNA variant scans (doi:10.1073/pnas.2313332121)
This sample holds only a part of the variants without activity.

B1: TPR 5TU (parent)
chain: GGAUCUUCUCGAUCUAACAAAAAAGACAAAUCUGCCACAAAGCUUGAGAGCAUCUUCGGAUGCAGAGGCGGCAGCCUUCGGUGGCGCGAUAGCGCCAACGUUCUCAACUAUGACACGCAAAACGCGUGCUCCGUUGAAUGGAGUUUAUCAUG

Variants of: B1
Assay: polymerase ribozyme fitness, log enrichment relative to wild type (log ratio); higher = more active; in vitro selection for triplet polymerase activity
Summary of the method: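 Mutant libraries of each subunit of a heterodimeric triplet polymerase ribozyme were built by PCR and transcribed. Each library went through one round of in vitro selection in triplicate: annealing with biotinylated primer, partner subunit and triplets, frozen incubation at −7 °C, gel excision of extended constructs, streptavidin-bead capture and RT-PCR. Input and output libraries were Illumina-sequenced; only genotypes with ≥10 input reads and ≥1 read per output were kept. Fitness is log2(genotype enrichment/wild-type enrichment), using inverse-variance-weighted replicate averages.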

Polymerase ribozyme fitness (log ratio), ≤ -4.2:
GGAUCUUCUAGAUCUAACAAAAAAGACAAAUCUGCCACAAAGCUUGAGAGCAUCUUCGGAUGCAGACGCGGCAGCCUUCGGUGGCGCGAUAGGGCCAAGGUUCUCAACUAUGACACGCAAAACGCGUGCUCCGUUGUAUGGAGUUAAUCAUG
GGAUCUUCUAGACCUAACAAAAAAGACAACUCUGCCACAAAGCUUGAGAGCAUCUUCGGAUGCAGAGGCGGCAGCCUUCGGUAGCGCAAUAGCGCCAUCGUUCUCAACUAUGACACGCAAAACGAGUGCUCCGUUGAAUGGAGUUUGUCAUG
GGAUCUUCUGGAUCUUACAAAAAAGACAAAUCUGCCACAAAGCUUGAGAGCAUUUACGAAUGCAGAGGCGGCAGCCUUCGGUGGCGCCAUAGCGCCAACGUUCUGAACUGUGACACGCUAAAAGCGUGCUCCGUUGAAUGGAGUGUACCAUG
GGAUCUUCUAGAUCUAACAAAAAAGACAAAUCUGCCACAAAGCUUGAGAACAUCUUCGGGUGCAGAGGCGGCAGCCUUCGGUGGCACGAUAGCGCCAACGUUCUCAACUAUGACACGCAAAACGCGUGCUCCCUUGAAUGGAGUUUAUCAUG
GGAUCUUCUAGAUCUAACAAAAAAGACAAAUCUGCCACAAAGCUUGAGAGCAUCUUCGGAUGCAGAGGCGGCAGCCUUCGGUGUCGCGAUAGCGCCAACGUUCUCAACUAUGACACGCAAAACGCGUGCUCCGUUGAAUGGAGUUUAUCAUG
GGAUCUUCUAGAUCUAACAAAAAAGACAAAUCUGCCACAAAGCUUGAGAGCAUCUGGGAAUGCAGAGGCGGCAGCCUUUGGUCGCGCGAUAGCGCCAAGGUUCUCAACUAUGACACGCAAAACGCGUGCUCCGUUGAAUGGAGUUUAUCAUG
GGAUCUUCUGGAUCUAACAAAAAAGACAAAUCUGCCACAUAGCUUGAGAGCAUCUUCGGAUGCUGAGGCGGCAGCGUUCGGUGGAGCGAUAGCGCCAACGUUCUCAACUAUGACACUCAAAACGCGUGCUCCGUUAAAUGGAAUUUAUCAUG
GGAUCUUCUGGAUCUAACGAAAAAGACAAAUCUACCACAAAGCUUGAGAGCCUGUUCGGAUGCAGAGGCGGCAGCCUUCGGUGGCGCGAUAGCGCCAACGUUCUCAACUAUGACACGCAAAACGCGUGCUCCGUUGAAUGGAGUUUAUCAUG
GGAUCUUCUAGAUCUAACAAAAAAGACAAACCUGCCACAAAGCUUAAGAGCAUCUUCGGAUGCAGAGGGGGCAGCCUUCAGAGGCACGAUAGCGCCAAUUUUCUCAACUAUGACACGCAAAACGCGUGCUCCGUUGAAUGAAGUUUAUCAUG
GGAUCUUCUGGAUCUAACAAAAAAGACACAUCUGCCACAAAGCUUGAGAGCAUAGUCGGAUGCAGAGGCGGCAGCCUUCGGUGGCGCAAUAUCGCCAACGUUCUCAACUAUGACACGCAAAACUCGUGCUCCGUUGAAUGGAGUUUAUCAUG
GGAUCUUCUGGAUCUAACAAAGAAGACAAAUCUGCCACUAAGCUUGAGAGCAUCUUCGGAUGCAGAGGCGGCAGCCUUCGGUGGCGCGAUAGCGCCAACGUUCUCAACCAUGACACGCAAAACGCGUGCUCCGUUGAAUGGAGUUUAUCAUG
GGAUCUUCUAGAUCUAACAAAAAAGACAAAUCUGCCACAAACCAUGAGAGCAACUUCGGAUGCAGAGGCGGCAGCCUUCGGUGGAGCGAUAGCGCCAACGUUCUCAACUAUGACACGCAAACCGCGUGCUCCGUUGAAUGGAGUUUAUCAUG
GGAUCUUCUGGAUCUAACAAAAAAGACUAAUCUGCCACAAAGCUUGAGAGCAUUUUCGGAUGCAGAGGCGGCAGCCUUCGGUGGGGCGAUAGCGCCAACGUUCUCAACUAUGACAUGCAAAACGCGUGCUCCGUUGAAUGGAGUUUAUCAUG
GGAUCUUCUAGAUCUAACAAAAAAGACAAAUCUGCCACAAAGCUUGAGAGCAUCUUCGGAUGCAGAGGCGGCAGCCUUCGCUGGCGCGAUAGCGCCAACGUUCUCAACUAUGACACGCAAAACGCGUGCUCCGUUGAAUGGAGUUUAUCAUG
GGAUCUUCUGGAUCUAUCAAAAAAGACAAAUCUGCCCCAAAGCUUGAGAGCAUCUUCGCAUGCAGAGGCGGCAGCCUUCGGUGGAGCGAUAGCGCCAACGUUCUCAACUAUGACACGCAAAACGCGUGCUCCGUUGAAUGGAGUUUAUCAUG
GGAUCUUCUGGAUCUAACAAAAAAGACAUAUCUGCCACAAAGCUUGAGAGCAUCUUCGGAUGCAGAGGCGGCAGCCUUCGGUGGCGCGAUAGCGUCAACGUUCUCAAAUAUGACACACAAAACGCGUGCUCCGUUGAAUGGACUUUAUCAUG
GGAUCUUCUGGAUCUAACAAAACAGACAAAGCUGCCACAAAGCUUGAGAGCAUCUUCGGAUGCAGAGGCGGCAGUCUUCGGUGGCGGGAUAGAGCCAACGUUCUCAACUAUGACACGCAAAACGCGUGCUCCUUUUAAUGGAGUUUAUCAUG
GGAUCUUCUGGAUCUAACAGAAAAGACAAAUCUGCCACAAAGCUUGAGAGCAUCUUCGGAUGCAGAGGCGGCAGCCUUCGGUGGCGCGAUAGCGCCAACGUUCUCAACUAUGACACGCAAAACGCGUGCUCCGUUGAGUGGAGAAUAUCAUG

Polymerase ribozyme fitness (log ratio), -4.08:
GGAUCUUCUAGAUCUAACAAAAAAGACAAAUCUGCCACAAAGCUUGAGAGCAUCUUCGGAUGCAGAGGCGGCAGCCUUCGGUGGCGCGAUAACGCCAACGUUCUCAACUAUGACACGCAAAACGCGUGCUCCGUUGAAUGGAGUUUAUCAUG
